Data on 4 molecules can be found in paper PMC9723610.

In data set [1] the target is T1, hG3BP1 (human, UniProt Q13283 1-466). Briefly: EMSA. (In general: Mobility shift assays separate free from complexed probe on a gel.)
The target of data set [2] is T1, hG3BP1. The experiment in a line: EMSA. This is another data set of the same source.

Read-outs that look alike come from different tables or passages of the source.

T1 sequence (Q13283 whole entry): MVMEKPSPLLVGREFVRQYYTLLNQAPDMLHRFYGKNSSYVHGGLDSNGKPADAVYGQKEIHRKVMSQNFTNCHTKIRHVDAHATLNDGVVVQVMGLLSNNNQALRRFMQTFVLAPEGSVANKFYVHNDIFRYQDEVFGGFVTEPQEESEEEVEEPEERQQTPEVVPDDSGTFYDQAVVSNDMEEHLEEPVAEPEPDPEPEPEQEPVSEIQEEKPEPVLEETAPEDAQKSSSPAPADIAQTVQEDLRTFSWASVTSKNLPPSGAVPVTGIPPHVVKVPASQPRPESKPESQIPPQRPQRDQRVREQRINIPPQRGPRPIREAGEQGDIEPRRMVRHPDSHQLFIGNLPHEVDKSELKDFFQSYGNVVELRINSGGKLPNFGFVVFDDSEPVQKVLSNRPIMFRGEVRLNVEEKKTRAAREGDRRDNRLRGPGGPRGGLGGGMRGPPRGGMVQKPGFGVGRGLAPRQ

On to AGGGGGCCGUGGGGUGGGAGCUGGGG (structured_RNA) [BCL2 rG4 (rBCL2)], for which, in data set [1], the binding result is “binds”.

As to AGGAGGAGGAGGAGG (structured_RNA) [r(AGG)5 rG4], the binding result in data set [2] was “binds”.

Turning to GGGUUAGGGUUAGGGUUAGGG (structured_RNA) [rOG0 rG4], the binding result in data set [1] was “binds”.

In the case of GUGUGGGAGGGGCGGGUCUGGGUGCG (structured_RNA) [NRAS rG4 (rNRAS)], the binding result in data set [1] is listed as “binds”.
